For the test, the target named is T1, Drp1 association with the mitochondria (Homo sapiens, UniProt O00429).
T1 construct: GST (N); host or cells: recombinant GST-Drp1 of unstated origin; mitochondria from mouse liver tissue
Kind of test: Association of recombinant Drp1 (GST-Drp1) with isolated mouse liver mitochondria. It is filed as binding. The note with it: peptide 1 μM, GST-Drp1, FIG. 2C. As to the method: If the peptides designed do represent PPI surfaces between Drp1 and Fis1, the peptides should inhibit the association of Drp1 with the mitochondria. To obtain isolated mitochondria, SH-5YSH cells were washed with cold phosphate-buffered saline (PBS) and incubated on ice in lysis buffer (250 mM sucrose, 20 mmol/L HEPES-NaOH, pH 7.5, 10 mmol/L KCl, 1.5 mmol/L MgCl2, 1 mmol/L EDTA, protease inhibitor cocktail, phosphatase inhibitor cocktail) for 30 minutes. Cells were scraped and then disrupted 10 times by repeated aspiration through a 25 gauge needle, followed by a 30 gauge needle. Mouse liver tissue was minced and ground by pestle in lysis buffer. The homogenates were spun at 800 g for 10 min at 4° C. and the resulting supernatants were spun at 10,000 g for 20 minutes at 4° C. The pellets were washed with lysis buffer and spun at 10,000 g again for 20 minutes at 4° C. The final pellets were suspended in lysis buffer containing 1% Triton X-100 and were mitochondrial-rich lysate fractions.
Mitochondria isolated from mouse liver were incubated with recombinant Drp1 (GST-Drp1). Drp1 bound to mitochondrial preparation and only P110 (1 μM) reduced this association by >60% (p<0.01, FIG. 2C); peptide carrier TAT47-57 or the other Drp1-derived peptides had no effect. The mitochondrial membrane protein VDAC was used as marker and loading control.

T1 sequence (O00429 1-710 isoform O00429-3): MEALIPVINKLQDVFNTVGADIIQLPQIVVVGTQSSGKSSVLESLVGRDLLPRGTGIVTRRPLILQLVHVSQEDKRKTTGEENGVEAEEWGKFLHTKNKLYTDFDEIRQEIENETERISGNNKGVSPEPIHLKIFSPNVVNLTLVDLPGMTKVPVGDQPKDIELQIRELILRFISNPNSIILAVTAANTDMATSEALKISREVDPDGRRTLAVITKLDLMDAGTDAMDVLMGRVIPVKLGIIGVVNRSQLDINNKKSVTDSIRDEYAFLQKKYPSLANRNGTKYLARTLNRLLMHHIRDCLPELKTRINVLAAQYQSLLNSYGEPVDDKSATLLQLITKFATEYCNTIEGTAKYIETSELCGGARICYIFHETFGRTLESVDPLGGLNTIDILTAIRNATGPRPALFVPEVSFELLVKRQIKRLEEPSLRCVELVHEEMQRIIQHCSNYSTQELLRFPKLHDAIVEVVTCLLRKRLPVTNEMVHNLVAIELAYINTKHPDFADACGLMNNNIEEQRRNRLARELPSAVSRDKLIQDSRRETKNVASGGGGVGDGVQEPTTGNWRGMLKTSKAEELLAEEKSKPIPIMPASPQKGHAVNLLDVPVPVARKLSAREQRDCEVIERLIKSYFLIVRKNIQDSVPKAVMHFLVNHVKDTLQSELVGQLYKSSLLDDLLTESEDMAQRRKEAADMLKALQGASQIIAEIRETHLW

For “TAT47-57: cell permeating TAT protein-derived peptide carrier, used alone as control peptide”, the “reduction of association of Drp1 with mitochondrial preparation” value is “no effect”.

The values above are taken from US10912815B2, “Inhibitors of mitochondrial fission and methods of use thereof” (The Board of Trustees of the Leland Stanford Junior …, priority 2011, dated 2021).
